Data published in publication PMC7692894.

What was measured:
[1] = SEC; milk peptide fraction <3 kDa (MP) run beside pepsin autoproteolysis peptides (PP); physiologically relevant conditions; area under the curve at 215 nm; details in Supplementary Information
[2] = biological target: milk-derived short digestion-resistant peptides with the mass <3 kDa; test: as above

milk-derived short digestion-resistant peptides with the mass <3 kDa
percent of the peptides aggregated [1]: 43.5% of the peptides aggregated into larger complexes
stoichiometry N [2]: > 4
